Test results from PMC8464984, “AimR Adopts Preexisting Dimer Conformations for Specific Target Recognition in Lysis-Lysogeny Decisions of Bacillus Phage phi3T” (Biomolecules, 2021).

Key:
[1] = target: T1, phAimR dimer (N103C-labelled) (Bacillus phage phi3T, UniProt P0DOE3, C136S/C223S/C267S/C6S/C74S/C99S/N103C); assay: smFRET titration of phAimR dimer labelled at N103C (Alexa488/Cy5); type: binding; conditions: titration of SAIRGA (20-500 nM) or target DNA (500-8000 nM), GMPRGA at 500 nM
T1 construct: 6xHis (N, cleaved yes); made in house; host or cells: Escherichia coli BL21 (DE3)
Procedure: (§1) The cysteine substitutions of phAimR (phAimR^C6S/C74S/C99S/C136S/C223S/C267S/N103C or phAimR^C6S/C74S/ C99S/C136S/C223S/C267S/D174C) were generated with a standard PCR-based strategy. Proteins were prepared in the same way as the wild-type phAimR. Alexa Fluor 488 C5 maleimide (Alexa488, A10254, Thermo Fisher, Shanghai, China) and Cy5 maleimide (Cy5, PA15131, GE Healthcare, Shanghai, China) were used as fluorescence donor and acceptor, respectively. A desalting column (HiPrep 26/10, GE Healthcare, Shanghai, China) was used to exchange the protein buffer into the conjugation buffer containing 20 mM phosphate (pH 7.4) and 100 mM NaCl. The protein fraction was collected in premixed Alexa488 and Cy5 dyes. The conjugation of phAimR was performed with Alexa488 and Cy5 at a molar ratio of 1:4:4. Conjugation reaction was performed for 3 h at room temperature in the dark, and the mixture was then purified using a Source-Q column (GE Healthcare, Shanghai, China). The fractions of double-labeled protein that had absorption at 280 nm, 493 nm and 640 nm were collected for smFRET data collection.
(§2) The laser confocal fluorescence microscope MicroTime 200 (PicoQuant, Berlin, Germany) was used for single-molecule imaging, and a pulsed interleaved excitation (PIE) scheme was used with two SPCM-AQRH detectors (Excelitas, Waltham, MA, USA) for recording fluorescence time traces at two different wavelengths. Two picosecond-pulsed diode laser heads (LDH-P-C-485 and LDH-P-C-640; PicoQuant, Berlin, Germany) were driven by a PDL 828 Sepia II driver (PicoQuant) at a repetition rate of 40 MHz, which allowed interleaved excitations for Alexa488 and Cy5. Each laser was coupled to the inverted microscope IX 73 (Olympus, Beijing, China) through a single-mode fiber, and was reflected by a dichroic mirror through a water-immersion objective (UPLSAPO 60×, N.A. 1.20). The protein sample was loaded onto a hybridization chamber (Thermo Fisher) glued to a glass coverslip (Thermo Fisher, Shanghai, China). The laser confocal point was set to about 50 μm above the coverslip. The excitation power at the back of the objective was about 100 μW for the 485 nm laser and about 35 μW for the 640 nm laser, as estimated with a power meter (PM20-FC; Thorlabs, Shanghai, China). Focused to a 100 μm pinhole, the fluorescence emission from the excited protein molecule was collected with the same objective. The donor and acceptor emissions were separated with a dichroic mirror (T635lpxr; Chroma, Xiamen, China). The donor emission was filtered with a 520/35 BP band pass, and the acceptor emission was filtered with a 690/70 BP band pass, before being focused onto the two SPCM-AQRH detectors.
(§3) The fluorescence outputs were recorded with a TimeHarp 260 PCI board (PicoQuant, Berlin, Germany) built into a PC workstation, and the data were stored in the time-tagged time-resolved module (PicoQuant, Berlin, Germany). The photon counts including fDex/Dem, fDex/Aem and fAex/Aem were obtained by binning the photons in 1 ms bins using SymPhoTime64 software (PicoQuant, Berlin, Germany). […] With all three fluorescence time traces recorded, the signals from the donor-only or acceptor-only protein molecules were filtered out, so as to ensure that an fDex/Aem photon only arises from a doubly labeled protein. […]

[2] = target: T2, phAimR dimer (D174C-labelled) (Bacillus phage phi3T, UniProt P0DOE3, C136S/C223S/C267S/C6S/C74S/C99S/D174C); assay: smFRET titration of phAimR dimer labelled at D174C (Alexa488/Cy5); type: binding; conditions: titration of SAIRGA or target DNA, GMPRGA at 500 nM
T2 construct: 6xHis (N, cleaved yes); made in house; host or cells: Escherichia coli BL21 (DE3)
Procedure: as §1, §2, §3

[3] = tested on: phAimR–target DNA interaction; assay: Electrophoretic mobility shift assay, phAimR binding to target DNA; type: biochemical, Bacillus phage phi3T; conditions: 5 nM FAM-labelled 41 bp DNA; 0, 0.037, 0.11, 0.33 and 1 M (so in the source) phAimR, peptide 10-fold molar excess; 25 mM Tris-HCl pH 8.0, 150 mM NaCl, room temperature, 10 min; three biological replicates
Procedure: DNA probes were annealed using boiling water with FAM-labeled primers to generate the 41 bp DNA fragment (70262-70302, 5′ […] 3′) from phi3T bacteriophage genome. The labeled probes (5 nM) were incubated with 0, 0.037, 0.11, 0.33 and 1 M phAimR proteins or peptide-bound phAimR complex (peptide is 10-fold molar excess of phAimR) in a buffer containing 25 mM Tris-HCl (pH 8.0), 5 mM MgCl2, 5 mM DTT, 0.1 mg·mL^−1 BSA, 10% glycerol and 150 mM NaCl at room temperature for 10 min. The reactions were resolved on 6% native acrylamide gels (37.5:1 acrylamide:bis-acrylamide) in 0.5× TBE buffer at 100 V for 75 min. Images of the gels were obtained using FLA5100 (Typhoon, Shanghai, China).
Figure S 6. EMSA characterize the interaction between phAimR and target DNA. The phi 3T-derived SAIRGA peptide abolishes the DNA binding ability of phAimR, whereas the SP beta-derived GMPRGA peptide has no effects. Each EMSA experiments was conducted for three biological replicates.
F ig u re S 7. Comparison of cross-correlation function GAD(τ) between apo phAimR ( b l a c k line), in complex with 500 nM SAIRGA peptide (blue line) and 8000 nM target DNA (red line). FCS data was collected forthe N103C dyes -labeled phAimR dimer. […]

spAimR = conditions: cited from earlier work
phAimR N103C-labeled = target: T3, phAimR N103C-labeled (Bacillus phage phi3T, UniProt P0DOE3 1-378, C6S;C74S;C99S;C136S;C223S;C267S;N103C); assay: smFRET titration; no peptide; EMSA: 25 mM Tris-HCl pH 8.0, 150 mM NaCl, 5 mM MgCl2, 5 mM DTT, 0.1 mg/mL BSA, 10% glycerol, room temperature 10 min, 5 nM probe, protein 0-1 (printed 'M', probably uM); smFRET titration buffer not in the material; conditions: protein: recombinant; tags: N-terminal 6xHis removed with drICE protease; Alexa488/Cy5 maleimide at C103; chain copies: 2; blunt
T3 sequence: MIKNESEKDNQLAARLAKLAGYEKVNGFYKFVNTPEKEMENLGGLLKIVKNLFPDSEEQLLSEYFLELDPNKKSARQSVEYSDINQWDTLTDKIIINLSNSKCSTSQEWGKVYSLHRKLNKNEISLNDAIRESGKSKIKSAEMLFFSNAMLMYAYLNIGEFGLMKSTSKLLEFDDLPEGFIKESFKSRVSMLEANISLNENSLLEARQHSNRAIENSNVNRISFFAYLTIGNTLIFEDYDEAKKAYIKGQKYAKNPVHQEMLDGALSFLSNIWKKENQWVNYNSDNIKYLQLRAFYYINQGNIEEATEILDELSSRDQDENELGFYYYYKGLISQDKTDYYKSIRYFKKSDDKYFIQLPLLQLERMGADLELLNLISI

phAimR D174C-labeled = target: T4, phAimR D174C-labeled (Bacillus phage phi3T, UniProt P0DOE3 1-378, C6S;C74S;C99S;C136S;C223S;C267S;D174C); assay: as above; conditions: protein: recombinant; tags: N-terminal 6xHis removed with drICE protease; Alexa488/Cy5 at C174; chain copies: 2; blunt
T4 sequence: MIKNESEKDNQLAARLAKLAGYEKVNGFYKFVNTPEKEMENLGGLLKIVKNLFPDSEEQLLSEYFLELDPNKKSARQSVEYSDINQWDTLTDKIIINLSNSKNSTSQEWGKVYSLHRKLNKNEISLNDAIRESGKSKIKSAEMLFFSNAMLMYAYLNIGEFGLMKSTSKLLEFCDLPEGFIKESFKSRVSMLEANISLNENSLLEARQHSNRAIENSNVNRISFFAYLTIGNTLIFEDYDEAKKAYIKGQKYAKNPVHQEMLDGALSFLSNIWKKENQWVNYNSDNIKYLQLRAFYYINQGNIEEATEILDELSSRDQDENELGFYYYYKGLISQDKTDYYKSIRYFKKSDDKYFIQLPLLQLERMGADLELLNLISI

phAimR wild type = target: T5, phAimR wild type (Bacillus phage phi3T, UniProt P0DOE3 1-378); assay: EMSA; no peptide; 5 mM MgCl2; EMSA: 25 mM Tris-HCl pH 8.0, 150 mM NaCl, 5 mM MgCl2, 5 mM DTT, 0.1 mg/mL BSA, 10% glycerol, room temperature 10 min, 5 nM probe, protein 0-1 (printed 'M', probably uM); smFRET titration buffer not in the material; conditions: protein: recombinant; tags: N-terminal 6xHis removed with drICE protease; chain copies: 2; label: FAM; blunt
T5 sequence: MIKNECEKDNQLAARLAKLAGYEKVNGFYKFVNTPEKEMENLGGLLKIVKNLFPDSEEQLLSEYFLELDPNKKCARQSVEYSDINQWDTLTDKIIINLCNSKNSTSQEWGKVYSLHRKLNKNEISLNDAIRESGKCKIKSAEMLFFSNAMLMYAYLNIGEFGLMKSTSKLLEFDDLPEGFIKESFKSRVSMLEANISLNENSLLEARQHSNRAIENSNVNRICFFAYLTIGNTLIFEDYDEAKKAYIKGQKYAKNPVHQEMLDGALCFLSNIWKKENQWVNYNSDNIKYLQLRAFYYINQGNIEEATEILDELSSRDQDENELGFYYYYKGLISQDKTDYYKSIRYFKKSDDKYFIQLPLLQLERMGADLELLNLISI

[4] = target: the molecule itself; assay: SEC; Superdex 200 Increase 10/300 GL; 8.2 uM protein without peptide; 25 mM Tris-HCl pH 8.0, 300 mM NaCl
[5] = target: the molecule itself; assay: SEC-MALS; static light scattering; 1.6 mg/mL protein without peptide; Superdex 200 Increase 10/300 with HELEOS multi-angle light scattering; 25 mM Tris-HCl pH 8.0, 300 mM NaCl

In the case of “GMPRGA [SPbeta arbitrium peptide (GMPRGA), negative control, reference compound]”, the “effect on smFRET profile / conformational state enriched” value [1] is reported as “no perturbation on the smFRET profile of phAimR”, the “effect on smFRET profile / conformational state enriched” value [2] is reported as “no perturbation on the smFRET profile of phAimR” and the “effect on DNA binding ability of phAimR (EMSA)” value [3] is reported as “no effects”. For the same molecule, the Kd (spAimR) was 0.0046 µM.

B1: phi3T target DNA (smFRET titration) (dsDNA)
DNA 1: GAAATGTCCAGAAATTCAAAAATCAAAAAATAAGAACATGG
DNA 2: CCATGTTCTTATTTTTTGATTTTTGAATTTCTGGACATTTC
Work on B1 yielded a Kd (phAimR N103C-labeled) of 1.65 ± 0.0446 µM and a Kd (phAimR D174C-labeled) of 1.26 ± 0.218 µM.

B2: phi3T target DNA 41 bp, FAM probe (dsDNA)
DNA 1: GAAATGTCCAGAAATTCAAAAATCAAAAAATAAGAACATGG
DNA 2: CCATGTTCTTATTTTTTGATTTTTGAATTTCTGGACATTTC
B2: binds (phAimR wild type).

B3: AimR from Phi3T phage (phAimR), wild type (natural protein, Bacillus phage phi3T)
chain: MIKNECEKDNQLAARLAKLAGYEKVNGFYKFVNTPEKEMENLGGLLKIVKNLFPDSEEQLLSEYFLELDPNKKCARQSVEYSDINQWDTLTDKIIINLCNSKNSTSQEWGKVYSLHRKLNKNEISLNDAIRESGKCKIKSAEMLFFSNAMLMYAYLNIGEFGLMKSTSKLLEFDDLPEGFIKESFKSRVSMLEANISLNENSLLEARQHSNRAIENSNVNRICFFAYLTIGNTLIFEDYDEAKKAYIKGQKYAKNPVHQEMLDGALCFLSNIWKKENQWVNYNSDNIKYLQLRAFYYINQGNIEEATEILDELSSRDQDENELGFYYYYKGLISQDKTDYYKSIRYFKKSDDKYFIQLPLLQLERMGADLELLNLISI
notes: AimR transcription factor of Bacillus phage phi3T, codon-optimized cDNA (GenBank KY030782.1) in pET15b; theoretical mass printed as 44.3 kDa; 6x His tag removed with drICE protease; Dimer by SLS, AUC and SAXS; also called phi3T AimR; wild-type phAimR; source: E. coli BL21 (DE3), purified (Ni-NTA, anion exchange, size-exclusion chromatography); not shown: His6, N-terminal, cleaved
In the case of B3, the “stoichiometry N” value [4] is reported as 2 and the “stoichiometry N” value [5] is reported as about 2.
